{
  "source": "the supplement of paper PMC10724198",
  "note": "± gives the standard deviation of the averaged measurements.",
  "data": [
    {"test_system": "Saccharomyces cerevisiae", "experiment": "protein stability index of tFT-peptide fusion (C-terminal peptide) (PSI (0-1 scale)); higher = more stable (slower turnover)", "conditions": "genetic background: wild type; temperature: 30 C", "procedure": "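MPS profiling in S. cerevisiae of the yeast C-terminome library: the last 12 aa of each annotated ORF are fused to the C-terminus of a sfGFP-mCherry timer, after a GGGS linker. Cells are FACS-sorted into 8 mCherry/sfGFP bins and deep-sequenced. PSI runs from 0 (unstable) to 1 (stable); wild type and das1Δ backgrounds, two technical replicates each.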", "values": [
      {"sequence": "RLPRSFLFLNKK [YOR343C C-terminal 12 aa]", "protein stability index": "0.665 ± 0.028"},
      {"sequence": "RLVVEPLQGRKH [ISD11 C-terminal 12 aa]", "protein stability index": "0.72 ± 0.036"},
      {"sequence": "RLYVSRLFISKL [ATP8 C-terminal 12 aa]", "protein stability index": "0.671 ± 0.14"},
      {"sequence": "RMDEENYEEEFC [UBP11 C-terminal 12 aa]", "protein stability index": "0.707 ± 0.034"},
      {"sequence": "RNQNSDRLNFQP [YBR138C C-terminal 12 aa]", "protein stability index": "0.675 ± 0.016"},
      {"sequence": "RPFYKRMFTKEK [HXT5 C-terminal 12 aa]", "protein stability index": "0.732 ± 0.033"},
      {"sequence": "RPMPPIRGPKRR [SMD3 C-terminal 12 aa]", "protein stability index": "0.724 ± 0.048"},
      {"sequence": "RPMQHMYINNFT [YAL026C-A C-terminal 12 aa]", "protein stability index": "0.672 ± 0.011"},
      {"sequence": "RQLGSKQRKHRL [ECI1 C-terminal 12 aa]", "protein stability index": "0.82 ± 0.026"},
      {"sequence": "RQSRERALGIKR [PRP22 C-terminal 12 aa]", "protein stability index": "0.701 ± 0.036"},
      {"sequence": "RRCDDMLYYIQN [POP4 C-terminal 12 aa]", "protein stability index": "0.662 ± 0.011"},
      {"sequence": "RRQMGIPTISQV [FHN1 C-terminal 12 aa]", "protein stability index": "0.6838 ± 0.0048"},
      {"sequence": "RSDTKEPLALLS [VPS20 C-terminal 12 aa]", "protein stability index": "0.646 ± 0.01"},
      {"sequence": "RSHSRKNSLSLL [SPO24 C-terminal 12 aa]", "protein stability index": "0.734 ± 0.028"},
      {"sequence": "RTDPDRYSRLSV [ILT1 C-terminal 12 aa]", "protein stability index": "0.7277 ± 0.0055"},
      {"sequence": "SCFSYSVGSKFT [YPR170W-A C-terminal 12 aa]", "protein stability index": "0.703 ± 0.014"},
      {"sequence": "SDHCWDGCWWCR [AQY2 C-terminal 12 aa]", "protein stability index": "0.765 ± 0.041"},
      {"sequence": "SEEKRRLAPADI [YOL019W-A C-terminal 12 aa]", "protein stability index": "0.691 ± 0.024"},
      {"sequence": "SELKGFVDEVDL [TFC1 C-terminal 12 aa]", "protein stability index": "0.721 ± 0.037"},
      {"sequence": "SESLSDSDLEIL [RAD24 C-terminal 12 aa]", "protein stability index": "0.666 ± 0.0085"},
      {"sequence": "SFCYVSACGRTQ [YFL021C-A C-terminal 12 aa]", "protein stability index": "0.709 ± 0.018"},
      {"sequence": "SFFLRNFFPSLF [YDL159W-A C-terminal 12 aa]", "protein stability index": "0.246 ± 0.022"},
      {"sequence": "SFPIASSTTQTS [NST1 C-terminal 12 aa]", "protein stability index": "0.689 ± 0.0087"},
      {"sequence": "SFYDNSLQTWIV [RRT2 C-terminal 12 aa]", "protein stability index": "0.752 ± 0.029"},
      {"sequence": "SGEAAEEAEDEE [RPS9B C-terminal 12 aa]", "protein stability index": "0.664 ± 0.039"},
      {"sequence": "SGIKEFFDNYKS [ARO9 C-terminal 12 aa]", "protein stability index": "0.716 ± 0.025"},
      {"sequence": "SGSGNSSKSNCC [SEC4 C-terminal 12 aa]", "protein stability index": "0.674 ± 0.018"},
      {"sequence": "SHDMDFNNAGDF [HMS1 C-terminal 12 aa]", "protein stability index": "0.7067 ± 0.0045"},
      {"sequence": "SHPTEQTEVSSQ [MHR1 C-terminal 12 aa]", "protein stability index": "0.68 ± 0.02"},
      {"sequence": "SICPAIRRKEDY [RDT1 C-terminal 12 aa]", "protein stability index": "0.659 ± 0.025"},
      {"sequence": "SIPGITGRAQIS [ORM1 C-terminal 12 aa]", "protein stability index": "0.6656 ± 0.0065"},
      {"sequence": "SIYDGTEEKIVY [DAL4 C-terminal 12 aa]", "protein stability index": "0.705 ± 0.01"},
      {"sequence": "SKLGINSGLCTN [ESL1 C-terminal 12 aa]", "protein stability index": "0.688 ± 0.03"},
      {"sequence": "SLCMEAGLVNEN [YCF1 C-terminal 12 aa]", "protein stability index": "0.663 ± 0.037"},
      {"sequence": "SLDITEDWEVIF [ROT2 C-terminal 12 aa]", "protein stability index": "0.7587 ± 0.0031"},
      {"sequence": "SLEKELISRGYR [CDC73 C-terminal 12 aa]", "protein stability index": "0.685 ± 0.02"},
      {"sequence": "SLKNYHNNTAQA [DBP6 C-terminal 12 aa]", "protein stability index": "0.68 ± 0.0075"},
      {"sequence": "SLNRPAERGGNR [YNL143C C-terminal 12 aa]", "protein stability index": "0.688 ± 0.041"},
      {"sequence": "SLPRQAGGRKKK [GLC7 C-terminal 12 aa]", "protein stability index": "0.668 ± 0.052"},
      {"sequence": "SLQVILEFVSQH [SXM1 C-terminal 12 aa]", "protein stability index": "0.6248 ± 0.0024"},
      {"sequence": "SLYPRFSGRCKP [DED81 C-terminal 12 aa]", "protein stability index": "0.6745 ± 0.0059"},
      {"sequence": "SMVSCLLTLYVL [GTT3 C-terminal 12 aa]", "protein stability index": "0.4796 ± 0.0038"},
      {"sequence": "SNENARNNNPYL [FLC2 C-terminal 12 aa]", "protein stability index": "0.705 ± 0.043"},
      {"sequence": "SNFSRTLGLEFI [YGL041C C-terminal 12 aa]", "protein stability index": "0.716 ± 0.077"},
      {"sequence": "SNSSICFPLTIF [YKL136W C-terminal 12 aa]", "protein stability index": "0.2798 ± 0.0007"},
      {"sequence": "SNSSKNRMNNYR [SPT6 C-terminal 12 aa]", "protein stability index": "0.721 ± 0.034"},
      {"sequence": "SPISVDFSSYLS [NBP1 C-terminal 12 aa]", "protein stability index": "0.72 ± 0.058"},
      {"sequence": "SRDYEETEYSVI [SPP381 C-terminal 12 aa]", "protein stability index": "0.687 ± 0.062"},
      {"sequence": "SRRRPFIGPETV [YMR057C C-terminal 12 aa]", "protein stability index": "0.703 ± 0.0072"},
      {"sequence": "SRVDEVVTKYSH [AAH1 C-terminal 12 aa]", "protein stability index": "0.667 ± 0.028"},
      {"sequence": "SSANIDINSIAK [SPO22 C-terminal 12 aa]", "protein stability index": "0.729 ± 0.11"},
      {"sequence": "SSASPEVDCRCG [YLR444C C-terminal 12 aa]", "protein stability index": "0.7312 ± 0.0057"},
      {"sequence": "SSFSLSLPRLNQ [SPT7 C-terminal 12 aa]", "protein stability index": "0.675 ± 0.028"},
      {"sequence": "SSIQDLLSKLAN [RTT103 C-terminal 12 aa]", "protein stability index": "0.7927 ± 0.0052"},
      {"sequence": "SSLPYDILPALL [YGL199C C-terminal 12 aa]", "protein stability index": "0.6882 ± 0.0011"},
      {"sequence": "SSSSTSSSATKN [TPS1 C-terminal 12 aa]", "protein stability index": "0.685 ± 0.047"},
      {"sequence": "STFSKPFSTISK [VHR2 C-terminal 12 aa]", "protein stability index": "0.682 ± 0.059"},
      {"sequence": "STHGPGIVIDFA [MRPL1 C-terminal 12 aa]", "protein stability index": "0.761 ± 0.089"},
      {"sequence": "STLAGEWRLIIA [YBR284W C-terminal 12 aa]", "protein stability index": "0.518 ± 0.019"},
      {"sequence": "SVSDPVKSEDSS [NCB2 C-terminal 12 aa]", "protein stability index": "0.689 ± 0.033"},
      {"sequence": "SVYEHEHEKTFI [FUR4 C-terminal 12 aa]", "protein stability index": "0.706 ± 0.0091"},
      {"sequence": "SWSGDNEAHRWT [NPT1 C-terminal 12 aa]", "protein stability index": "0.686 ± 0.016"},
      {"sequence": "TAEEQEQSACQC [YPT6 C-terminal 12 aa]", "protein stability index": "0.687 ± 0.021"},
      {"sequence": "TAESDDDEEDDE [TIF5 C-terminal 12 aa]", "protein stability index": "0.709 ± 0.052"},
      {"sequence": "TATSSSIILSDK [SSN2 C-terminal 12 aa]", "protein stability index": "0.665 ± 0.045"},
      {"sequence": "TDELWEMLLDQA [MET12 C-terminal 12 aa]", "protein stability index": "0.723 ± 0.072"},
      {"sequence": "TELRHKRTGGKH [ILV2 C-terminal 12 aa]", "protein stability index": "0.7268 ± 0.002"},
      {"sequence": "TGKDVMKGALGF [SRO7 C-terminal 12 aa]", "protein stability index": "0.667 ± 0.024"},
      {"sequence": "TGRDMMKSAVGF [SRO77 C-terminal 12 aa]", "protein stability index": "0.661 ± 0.016"},
      {"sequence": "TGTSTEAPSAAN [NCL1 C-terminal 12 aa]", "protein stability index": "0.6578 ± 0.0053"},
      {"sequence": "THQKKIAKKKHQ [YPR015C C-terminal 12 aa]", "protein stability index": "0.695 ± 0.014"},
      {"sequence": "TIITKYEMLVRT [YOL134C C-terminal 12 aa]", "protein stability index": "0.5399 ± 0.0028"},
      {"sequence": "TKKSSSHHRTGK [DIG1 C-terminal 12 aa]", "protein stability index": "0.688 ± 0.016"},
      {"sequence": "TLEDEALQRNSK [JNM1 C-terminal 12 aa]", "protein stability index": "0.686 ± 0.017"},
      {"sequence": "TLNVSNISHYSL [GAL80 C-terminal 12 aa]", "protein stability index": "0.704 ± 0.0075"},
      {"sequence": "TLQSEINISVKH [ENA5 C-terminal 12 aa]", "protein stability index": "0.6909 ± 0.0042"},
      {"sequence": "TLTDLRDELRGL [NUP120 C-terminal 12 aa]", "protein stability index": "0.721 ± 0.024"},
      {"sequence": "TLWNDNTSYPFL [PDR3 C-terminal 12 aa]", "protein stability index": "0.7571 ± 0.0029"},
      {"sequence": "TNDSFNIVALTP [PRP19 C-terminal 12 aa]", "protein stability index": "0.654 ± 0.017"},
      {"sequence": "TPENNHLKWLIK [UGX2 C-terminal 12 aa]", "protein stability index": "0.685 ± 0.035"},
      {"sequence": "TPKPVDTDDEED [NEW1 C-terminal 12 aa]", "protein stability index": "0.707 ± 0.035"},
      {"sequence": "TPLGQTLLDSRR [DAL1 C-terminal 12 aa]", "protein stability index": "0.67 ± 0.011"}
    ]}
  ]
}
